Test results reported in article PMC2948018, “Identification of Thioaptamer Ligand against E-Selectin: Potential Application for Inflamed Vasculature Targeting”.

What was measured:
Assay in all cases: EMSA; 5 mM Mg2+, Ca2+; EMSA: PBS with Ca2+ and Mg2+, 5 mM MgCl2, 1% NP40, room temperature 45 min, 4.6 pmol ESTA-1 with 0-19 pmol selectin in 10.5 ul, 6% gel run at 4 C; cell binding: 20 min at 37 C; pH not stated
L-selectin = biological target: T1, L-selectin (UniProt P14151 39-332); conditions: protein: recombinant; label: none in EMSA (SYBR Gold stain); two hairpin loops (MFOLD)
T1 sequence: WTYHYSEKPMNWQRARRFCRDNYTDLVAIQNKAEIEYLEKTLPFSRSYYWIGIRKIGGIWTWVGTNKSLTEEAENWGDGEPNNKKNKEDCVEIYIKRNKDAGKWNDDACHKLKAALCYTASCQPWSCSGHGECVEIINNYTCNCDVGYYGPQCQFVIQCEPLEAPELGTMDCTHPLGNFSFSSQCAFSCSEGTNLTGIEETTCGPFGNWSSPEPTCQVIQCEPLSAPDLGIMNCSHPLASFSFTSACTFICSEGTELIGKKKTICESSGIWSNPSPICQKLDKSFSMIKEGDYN

[1] = biological target: T2, E-selectin extracellular domain (human, UniProt P16581 22-556); conditions: protein: commercial; label: none in EMSA (SYBR Gold stain); two hairpin loops (MFOLD)
T2 sequence: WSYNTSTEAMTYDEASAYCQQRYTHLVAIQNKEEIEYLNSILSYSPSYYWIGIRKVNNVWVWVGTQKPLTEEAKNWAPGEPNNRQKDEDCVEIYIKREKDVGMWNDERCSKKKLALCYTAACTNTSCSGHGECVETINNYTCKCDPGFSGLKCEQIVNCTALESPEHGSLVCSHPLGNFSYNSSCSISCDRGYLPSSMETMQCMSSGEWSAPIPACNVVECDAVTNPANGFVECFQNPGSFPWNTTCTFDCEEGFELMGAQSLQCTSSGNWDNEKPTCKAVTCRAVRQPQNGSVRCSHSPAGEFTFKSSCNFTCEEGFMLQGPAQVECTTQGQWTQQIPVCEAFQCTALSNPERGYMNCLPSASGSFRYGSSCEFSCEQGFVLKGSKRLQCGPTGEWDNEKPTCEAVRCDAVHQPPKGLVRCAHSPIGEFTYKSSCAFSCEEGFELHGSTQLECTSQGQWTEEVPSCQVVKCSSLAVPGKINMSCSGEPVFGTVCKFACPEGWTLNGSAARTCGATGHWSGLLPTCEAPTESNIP

P-selectin = P-selectin (UniProt P16109 42-771); conditions: protein: recombinant; label: none in EMSA (SYBR Gold stain); two hairpin loops (MFOLD)
Sequence of P-selectin (P16109 42-771): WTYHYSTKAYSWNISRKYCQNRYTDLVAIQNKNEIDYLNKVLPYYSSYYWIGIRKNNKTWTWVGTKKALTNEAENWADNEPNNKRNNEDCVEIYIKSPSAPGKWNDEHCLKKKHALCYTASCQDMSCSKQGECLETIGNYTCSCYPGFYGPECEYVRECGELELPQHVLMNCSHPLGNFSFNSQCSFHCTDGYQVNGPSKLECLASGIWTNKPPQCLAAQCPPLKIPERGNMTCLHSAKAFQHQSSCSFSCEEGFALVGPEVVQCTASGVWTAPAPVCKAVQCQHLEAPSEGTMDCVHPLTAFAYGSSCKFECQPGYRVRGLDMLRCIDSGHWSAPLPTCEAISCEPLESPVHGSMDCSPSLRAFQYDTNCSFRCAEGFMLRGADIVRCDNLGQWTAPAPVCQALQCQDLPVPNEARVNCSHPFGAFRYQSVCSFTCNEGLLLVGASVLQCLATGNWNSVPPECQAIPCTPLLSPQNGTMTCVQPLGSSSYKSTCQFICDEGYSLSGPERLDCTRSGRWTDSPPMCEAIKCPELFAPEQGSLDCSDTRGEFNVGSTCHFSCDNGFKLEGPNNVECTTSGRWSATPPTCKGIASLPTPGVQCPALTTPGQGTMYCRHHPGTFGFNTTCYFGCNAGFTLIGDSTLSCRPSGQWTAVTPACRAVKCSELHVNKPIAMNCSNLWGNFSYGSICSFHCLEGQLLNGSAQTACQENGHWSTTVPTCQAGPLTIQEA

B1: ESTA-1 (TA-1) (XNA)
DNA: CGCTCGGATCGATAAGCTTCGATCCCACTCTCCCGTTCACTTCTCCTCACGTCACGGATCCTCTAGAGCACTG
modifications: monothiophosphate (Rp) at all dA except 5' primer region
Does B1 bind (L-selectin)?
Result: no binding

And the Kd [1]?
Its Kd is 0.047 µM.

What about the Kd (P-selectin) of the same binder?
The Kd was about 13 µM.
